# According to US20250027068:
# Biological target: pooled human IgG (human IgG1, 2, 3 and 4)
Protein,Enzyme Activity Endpoint Assay (purified): Fab′2 [ng/µL],Enzyme Activity Endpoint Assay (purified): Fc [ng/µL],Enzyme Activity Endpoint Assay (purified): IgG [ng/µL],Enzyme Activity Endpoint Assay (purified): scIgG [ng/µL],Enzyme Activity Endpoint Assay (purified): Fab'2 [ng/µL]
PRT-690 (protein) MQITSVWTKGVTPPTPEQFRYNNEDVIHAPYLANQGWYDITKTFNGKDNLLCGAATAGNMLHWWFDQNKTEIEAYLSKYPEKQKIIFNNQELFDLRAAINTKDSQTNSQLFNYFRDKAFPNLSARQLGVMPDLVLDMFINGYYLNVFKTQSTDVNRPYQDKDKRGGIFDAVFNRGDQTTLLTARHDLKNKTLNDISTLIKQELSSGKALALSHTYANVSISHVINLWGADFNAEGNLEAIYVTDSDANSNIGMKKYKVGVNAHGKVAISAKKIEGENIGAQVLGLFTLSSGKDIWQKLSLEHHHHHH,966,482,0,0,
PRT-373 (protein) MSQTEDSESLQRLRDIEDFQAEKEKQNVVYTKWLDGVDVKDHDFRKIVDGNSAYYATPLLNGRGWYDINKDFNRDNDKCAAAVAANMFHYWLDRNRDNVDRFLRQNPEKHGIIELPDGQLKLSDFLNTYESDDGYRDKSKLFDFISENFNGPVWTDKLLDNYINGYAYNSKYGRTIEDSTKNTSKINFFKEVFNEKILTNNHSIRNQNEFSVLLIEALYTGKAIGLSYGPAGLRHGLGHIISVWGADLDADGNVVAIYVTDSDDKKLTIGDERVGLKRYKISTDDEGRLRLTAYEETHNTGGQVRGLWTLDTGKQAWADYFDKTEQTGTDQAEQ,392,295,38,281,
PRT-432 (protein) MSQTEDSESLQRLRDIEDFQAEKKKQNVVYTKWLDGVDVKDHDFRKIVDGNIAYYATPLLNGRGFYDINKDFNRDSDKCAAAVAANMFHYWLDRNRDNVDRFLRQNPEKHGIIELPDGQLKLSDFLNTYESDDGYRDKSKLFDFISNNFNGPVWTDKLLDNYINGYAYNSKYGRTIEDPTKNTSKINFFKEVFNEKILTNNHSIRNQNEFSVLLSEALYTGKAIGLSYGPAGLRHSLGHIISVWGADLDADGNVVAIYVTDSDDKKLTIGDERVGLKRYKISTDDEGRLRLTAYEETHNTGGQIRGLWTLDTGKQAWADYFDKTEQTGTDQAEQ,462,305,0,385,
PRT-430 (protein) MSQTEDSESLQRLRDIEDFQAEKKKQNVVYTKWLDGVDVKDHDFRKIVDGNSAYYATPLLNGRGFYDINKDFNRDSDKCAAAVAANMFHYWLDRNRDNVDRFLRQNPEKHGIIELPDGQLKLSDFLNTYESDDGYRDKSKLFDFISNNFNGPVWTDKLLDNYINGYAYNYKYGRTIEDPTKNTSKINFFKEVFNEKILTNNHSIRNQNEFSVLLSEALYTGKAIGLSYGPAGLRHSLGHIISVWGADLDADGNVVAIYVTDSDDKKLTIGDERVGLKRYKISTDDEGRLRLTAYEETHNTGGQIRGLWTLDTGKQAWADYFDKTEQTGTDQAEQ,492,330,0,324,
PRT-438 (protein) MSQTEDSESLQRLRDIEDFQAEKKKQNVVYTKWLDGVDVKDHDFRKIVDGNIAYYATPLLNGRGLYDINKDFNRDSDKCAAAVAANMFHYWLDRNRDNVDRFLRQNPEKHGIIELPDGQLKLSDFLNTYESDDGYRDKSKLFDFISNNFNGPVWTDKLLDNYINGYAYNYKYGRTIEDPTKNTSKINFFKEVFNEKILTNNHSIRNQNEFSVLLSEALYTGKAIGLSYGPAGLRHSLGHIISVWGADLDADGNVVAIYVTDSDDKKLTIGDERVGLKRYKISTDDEGRLRLTAYEETHNTGGQIRGLWTLDTGKQAWADYFDKTEQTGTDQAEQ,,320,0,249,578
PRT-431 (protein) MSQTEDSESLQRLRDIEDFQAEKKKQNVVYTKWLDGVDVKDHDFRKIVDGNIAYYATPLLNGRGFYDINKDFNRDSDKCAAAVAANMFHYWLDRNRDNVDRFLRQNPEKHGIIELPDGQLKLSDFLNTYESDDGYRDKSKLFDFISENFNGPVWTDKLLDNYINGYAYNYKYGRTIEDPTKNTSKINFFKEVFNEKILTNNHSIRNQNEFSVLLSEALYTGKAIGLSYGPAGLRHSLGHIISVWGADLDADGNVVAIYVTDSDDKKLTIGDERVGLKRYKISTDDEGRLRLTAYEETHNTGGQIRGLWTLDTGKQAWADYFDKTEQTGTDQAEQ,521,310,0,230,
PRT-436 (protein) MSQTEDSESLQRLRDIEDFQAEKKDQNVVYTKWLDGVDVKDHDFRKIVDGNIAYYATPLLNGRGFYDINKDFNRDSDKCAAAVAANMFHYWLDRNRDNVDRFLRQNPEKHGIIELPDGQLKLSDFLNTYESDDGYRDKSKLFDFISNNFNGPVWTDKLLDNYINGYAYNYKYGRTIEDPTKNTSKINFFKEVFNEKILTNNHSIRNQNEFSVLLSEALYTGKAIGLSYGPAGLRHSLGHIISVWGADLDADGNVVAIYVTDSDDKKLTIGDERVGLKRYKISTDDEGRLRLTAYEETHNTGGQIRGLWTLDTGKQAWADYFDKTEQTGTDQAEQ,,305,0,379,445
PRT-440 (protein) MSQTEDSESLQRLRDIEDFQAEKKKQNVVYTKWLDGVDVKDHDFRKIVDGNIAYYATPLLNGRGFYDINKDFNRDSDKCAAAVAANMFHYWLDRNRDNVDRFLRQNPEKHGIIELPDGQLKLSDFLNTYESDDGYRDKSKLFDFISNNFNGPVWTDKLLDNYINGYAYNYKYGRTIEDPTKNTSKINFFKEVFNEKILTNNHSIRNQNELSVLLSEALYTGKAIGLSYGPAGLRHSLGHIISVWGADLDADGNVVAIYVTDSDDKKLTIGDERVGLKRYKISTDDEGRLRLTAYEETHNTGGQIRGLWTLDTGKQAWADYFDKTEQTGTDQAEQ,,328,0,245,575
PRT-564 (protein) MANQEIRYSEATPSHITSVWTKGVTPPTQFIQNEDVLHAPYIANQGWYDITKTFNGKDDLLCGAATAGNMLHWWFDQNKTQIENYLKKHPEKQKINFNGEQMFDVKEAIDTKDSQTDSALFSYFKDKAFPYLSTKHLGVFPDHVIDMFINGYRLSLTNHGPTPVKRQTKDPRGGIFDAVFTRGDQSKLLTSRHDFKEKTLNEISQLIKQELTEGKALGLSHTYANVRINHVINLWGADFNAEGNLEAIYVTDSDSNASIGMKKYYVGVNAAGKVAISAKEIEGDNIGAQVLGLFTLSTGQDIWQQTNLEHHHHHH,651,351,0,0,
PRT-684 (protein) MQITSVWTKGVTPLTPEQFTNNNEDVIHAPYLANQGWYDITKTFNGKDNLLCGAATAGNMLHWWFDQNKEEIEAYLKKHPEKQKIIFNNQELFDLKKAIDTKDSQTNSALFNYFRDKAFPNLSARQLGVMPDLVLDMFINGYYLNVFKTQSTDVNRPYQTKDKRGGIFDAVFTRGDQTTLLTARHDLKNKGLNEISDIIKQELTEGKALALSHTYANVSISHVINLWGADFNAEGNLIAIYVTDSDANASIGMKKYFVGVNSHGKVAISAKKIEGENIGAQVLGLFTLSSGQDIWQKLSLEHHHHHH,1060,542,0,0,
PRT-694 (protein) MTITSVWTKGVTPPTPEDFRYNNEDVLHAPYVANQGWYDITKTFDGKDNLLCGAATAGNMLHWWFDQNKEEIERYLKKYPEKQKIIFNNQELFDVRAAINTKDSQTNSKLFNYFRDKAFPNLSARQLGVMPDLVLDMFINGYYLNLGKTQSTDVNRPYQDKDKRGGIFDAVFNRGDQTTLLTARHDLKNKGLNEISDLIKQELSSGKALALSHTYANVRINHVINLWGADFDAEGNLIAIYVTDSDANSNIGMKKYKVGVNANGKVAISAKKIEGDNIGAQVLGLFTLSTGQDIWQKLSLEHHHHHH,541,0,1030,15,
PRT-603 (protein) MQITTVWTKGVTPLTPEQFRYNNEDVIHAPYLAHQGWYDITKAFDGKDNLLCGAATAGNMLHWWFDQNKTEIEAYLSKHPEKQKIIFNNQELFDLKAAIDTKDSQTNSQLFNYFRDKAFPNLSARQLGVMPDLVLDMFINGYYLNVFKTQSTDVNRPYQDKDKRGGIFDAVFTRGDQTTLLTARHDLKNGGLNDISTIIKQELQSGRALALSHTYANVSISHVINLWGADFNAEGNLEAIYVTDSDANASIGMKKYFVGINAHGHVAISAKKIEGENIGAQVLGLFTLSSGKDIWQKLSLEHHHHHH,965,486,0,0,
PRT-377 (protein) MVTSVWTKGVTPPTNFTYGEDVLHAPYVANQGWYDITKTFNGKDDLLCGAATAGNMLHWWFDQNKEQIENYLKKHPEKQKINFNGEQMFDVKEAIDTKDSQLDSKLFEYFLEKAFPYLSTKHLGVFPDHVIDMFINGYRLSLTNHGPTPVKRGSKDPRGGIFDAVFTRGDQSKLLTNRHDFKEKTLKEISDLIKQELTEGKALGISHTYANVRINHVINLWGADFDAEGNLEAIYVTDSDSNASIGMKKYFVGVNSNGKVAISAKEIEEDNIGAQVLGLFTLSTGQDIWNQTN,572,348,0,242,
